Results: publication PMC4109916

Experiments:
[1] = molecular target: hIgG1-TAMRA (labeled human IgG1) (human); assay: flow cytometry on cells; same competition experiment as a5 (1 µM hIgG1-TAMRA, MDCK hFcRn-EYFP/hβ2m cells, 1 hr at 37°C, pH 6); pair of the soluble competitor mKate-IgGBP with the labeled hIgG1 that it binds
[2] = molecular target: Human IgG1 (Avastin, bevacizumab) (human)
[3] = molecular target: Human IgG1 (Avastin, bevacizumab) (human); assay: SPR; pH 6
[4] = molecular target: Human IgG1 (Avastin, bevacizumab) (human); assay: SPR; pH 7.4
[5] = molecular target: Human IgG1 (Avastin, bevacizumab) (human); remark: listed apart in the source
[6] = molecular target: Recombinant Protein A (SpA) (staphylococcal (species not stated)) (UniProt P38507); assay: ELISA; competition: wells coated with mKate-IgGBP or SpA; 1:4000 dIgG-HRP co-incubated with increasing concentrations of unlabeled IgG, 1 hr at room temperature, 3% BSA in PBS-T; IC50 from a one-site LogIC50 fit
[7] = molecular target: human neonatal Fc receptor hFcRn-EYFP/hβ2m on MDCK cells (human) (UniProt P55899); assay: flow cytometry on cells; competition: MDCK hFcRn-EYFP/hβ2m cells with 1 µM hIgG1-TAMRA and increasing unlabeled competitor, 1 hr at 37°C, pH 6 (HBSS, 1% ovalbumin, 50 mM MES); read-out is % hIgG1 accumulation (binding and FcRn-dependent endocytosis); pairs with the receptor on cells
UniProt P55899, sequence (P55899 24-365, chain 1 of 2): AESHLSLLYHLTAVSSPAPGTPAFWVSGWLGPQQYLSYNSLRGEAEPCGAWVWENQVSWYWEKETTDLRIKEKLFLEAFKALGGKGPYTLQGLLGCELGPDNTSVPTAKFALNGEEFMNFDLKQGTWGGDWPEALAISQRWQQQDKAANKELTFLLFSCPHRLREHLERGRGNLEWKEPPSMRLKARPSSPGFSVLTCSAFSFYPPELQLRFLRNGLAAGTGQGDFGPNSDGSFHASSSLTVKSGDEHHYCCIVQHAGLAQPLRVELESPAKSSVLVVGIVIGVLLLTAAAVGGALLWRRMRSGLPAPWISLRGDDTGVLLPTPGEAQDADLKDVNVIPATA
UniProt P55899, sequence (P61769 21-119, chain 2 of 2, further chain): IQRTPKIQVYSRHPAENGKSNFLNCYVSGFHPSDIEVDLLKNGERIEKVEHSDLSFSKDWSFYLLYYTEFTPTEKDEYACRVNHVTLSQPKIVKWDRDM

[8] = molecular target: mKate-IgGBP (monomeric Katushka modified at its C-terminus with the IgG-Fc binding peptide); assay: ELISA; competition: wells coated with mKate-IgGBP or SpA; 1:4000 dIgG-HRP co-incubated with increasing concentrations of unlabeled IgG, 1 hr at room temperature, 3% BSA in PBS-T; IC50 from a one-site LogIC50 fit

Molecule: mKate-IgGBP (monomeric Katushka modified at its C-terminus with the IgG-Fc binding peptide) (designed binder)
- IC50 [1]: 700 nM
- plasma half-life of mKate-IgGBP (10 mg/kg i.v.) in hFcRn Tg mice pre-dosed with 500 mg/kg hIgG1 [2]: 8 h
- Kd [3]: 19 nM
- koff [3]: 0.0053 s⁻¹
- kon [3]: 270000 M⁻¹ s⁻¹
- Kd [4]: 40 nM
- koff [4]: 0.0042 s⁻¹
- kon [4]: 110000 M⁻¹ s⁻¹
- fold extension of the plasma half-life of mKate-IgGBP co-dosed 1:1 mol with labeled hIgG1 in hFcRn Tg mice, against mKate-IgGBP dosed without hIgG1 [5]: 16 fold

Molecule: mouse IgG2b (MPC-11 isotype control) (antibody)
- IC50 [6]: 54 nM

Molecule: Human IgG1 (Avastin, bevacizumab) (antibody)
- IC50 [6]: 22 nM

Molecule: mouse IgG2a (CI.18 isotype control) (antibody)
- IC50 [6]: 61 nM

B1: Human IgG1 (Avastin, bevacizumab) (antibody, V domains shown)
VH: EVQLVESGGGLVQPGGSLRLSCAASGYTFTNYGMNWVRQAPGKGLEWVGWINTYTGEPTYAADFKRRFTFSLDTSKSTAYLQMNSLRAEDTAVYYCAKYPHYYGSSHWYFDVWGQGTLVTVSS
VL: DIQMTQSPSSLSASVGDRVTITCSASQDISNYLNWYQQKPGKAPKVLIYFTSSLHSGVPSRFSGSGSGTDFTLTISSLQPEDFATYYCQQYSTVPWTFGQGTKVEIK
- IC50 [7]: 2800 nM
- IC50 [8]: 2.4 nM
